Drawing on patent US20230374153A1 (PARADIGM IMMUNOTERAPEUTICS, published 2023), this text covers Kd, koff and kon for 2 molecules.

Assay [1] concerns the target T1, FcRn (neonatal Fc receptor) (UniProt P55899 24-297; P61769 21-119).
T1 construct: also called FCGRT; purified FcRn receptor
The experiment in a line: SPR (Biacore, ACRO Biosystems), pH 6.0. A general note: Surface plasmon resonance follows binding to a sensor surface in real time, without labels.

In assay [2] the target is T1, FcRn (neonatal Fc receptor).

T1 sequence (P55899 24-297 limits assumed, chain 1 of 2): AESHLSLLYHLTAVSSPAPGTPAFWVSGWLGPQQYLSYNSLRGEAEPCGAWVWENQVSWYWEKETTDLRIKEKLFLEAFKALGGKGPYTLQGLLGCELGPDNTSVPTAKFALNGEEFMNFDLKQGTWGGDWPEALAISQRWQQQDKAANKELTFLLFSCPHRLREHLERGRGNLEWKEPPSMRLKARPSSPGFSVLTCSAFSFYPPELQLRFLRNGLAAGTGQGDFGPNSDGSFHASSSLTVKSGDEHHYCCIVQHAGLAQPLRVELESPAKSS
T1 sequence (P61769 21-119 limits assumed, chain 2 of 2): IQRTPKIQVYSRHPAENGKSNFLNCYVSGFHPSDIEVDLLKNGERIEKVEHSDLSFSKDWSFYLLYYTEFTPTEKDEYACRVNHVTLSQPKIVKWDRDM

B1: ACE2 LVE IgG Fc STR chimeric antibody (LiVE) (Fc fusion)
chain: QSTIEEQAKLFLDKFNVEAEDLFYQSSLASWNYNTNITEENVQNMNNAGDKWSAFLKEQSTLAQMYPLQEIQELTVKLQLQALQQNGSSVLSEDKSKRLNTILNTMSTIYSTGKVCNPDNPQECLLLEPGLNEIMANSLDYNERLWAWESWRSEVGKQLRPLYEEYVVLKNEMARANHYEDYGDYWRGDYEVNGVDGYDYSRGQLIEDVEHTFEEIKPLYEHLHAYVRAKLMNAYPSYISPIGCLPAHLLGDMWGRFWTNLYSLTVPFGQKPNIDVTDAMVDQAWDAQRIFKEAEKFFVSVGLPNMTQGFWENSMLTDPGNVQKAVCHPTAWDLGKGDFRILMCTKVTMDDFLTAHHEMGHIQYDMAYAAQPFLLRNGANEGFHEAVGEIMSLSAATPKHLKSIGLLSPDFQEDNETEINFLLKQALTIVGTLPFTYMLEKWRWMVFKGEIPKDQWMKKWWEMKREIVGVVEPVPHDETYCDPASLFHVSNDYSFIRYYTRTLYQFQFQEALCQAAKHEGPLHKCDISNSTEAGQKLFNMLRLGKSEPWTLALENVVGAKNMNVRPLLNYFEPLFTWLKDQNKNSFVGWSTDWSPYADQSIKVRISLKSALGDKAYEWNDNEMYLFRSSVAYAMRQYFLKVKNQMILFGEEDVRVANLKPRISFNFFVTAPKNVSDIIPRTEVEKAIRMSRSRINDAFRLNDNSLEFLGIQPTLGPPNQPPVSGGGGSGGGGSDKTHTCPPCPAPESTRGPSVFLFPPKPKDTLMISRTPEVTCVVVDVSHEDPEVKFNWYVDGVEVHNAKTKPREEQYNSTYRVVSVLTVLHQDWLNGKEYKCKVSNKALPAPIEKTISKAKGQPREPQVYTLPPSRDELTKNQVSLTCLVKGFYPSDIAVEWESNGQPENNYKTTPPVLDSDGSFFLYSKLTVDKSRWQQGNVFSCSVMHEALHNHYTQKSLSLSPGK
On to B1, for which the Kd in assay [1] worked out at 517 nM.

B2: ACE2 LVE IgG Fc STR YTE chimeric antibody (LiVE Longer) (Fc fusion)
chain: QSTIEEQAKLFLDKFNVEAEDLFYQSSLASWNYNTNITEENVQNMNNAGDKWSAFLKEQSTLAQMYPLQEIQELTVKLQLQALQQNGSSVLSEDKSKRLNTILNTMSTIYSTGKVCNPDNPQECLLLEPGLNEIMANSLDYNERLWAWESWRSEVGKQLRPLYEEYVVLKNEMARANHYEDYGDYWRGDYEVNGVDGYDYSRGQLIEDVEHTFEEIKPLYEHLHAYVRAKLMNAYPSYISPIGCLPAHLLGDMWGRFWTNLYSLTVPFGQKPNIDVTDAMVDQAWDAQRIFKEAEKFFVSVGLPNMTQGFWENSMLTDPGNVQKAVCHPTAWDLGKGDFRILMCTKVTMDDFLTAHHEMGHIQYDMAYAAQPFLLRNGANEGFHEAVGEIMSLSAATPKHLKSIGLLSPDFQEDNETEINFLLKQALTIVGTLPFTYMLEKWRWMVFKGEIPKDQWMKKWWEMKREIVGVVEPVPHDETYCDPASLFHVSNDYSFIRYYTRTLYQFQFQEALCQAAKHEGPLHKCDISNSTEAGQKLFNMLRLGKSEPWTLALENVVGAKNMNVRPLLNYFEPLFTWLKDQNKNSFVGWSTDWSPYADQSIKVRISLKSALGDKAYEWNDNEMYLFRSSVAYAMRQYFLKVKNQMILFGEEDVRVANLKPRISFNFFVTAPKNVSDIIPRTEVEKAIRMSRSRINDAFRLNDNSLEFLGIQPTLGPPNQPPVSGGGGSGGGGSDKTHTCPPCPAPESTRGPSVFLFPPKPKDTLYITREPEVTCVVVDVSHEDPEVKFNWYVDGVEVHNAKTKPREEQYNSTYRVVSVLTVLHQDWLNGKEYKCKVSNKALPAPIEKTISKAKGQPREPQVYTLPPSRDELTKNQVSLTCLVKGFYPSDIAVEWESNGQPENNYKTTPPVLDSDGSFFLYSKLTVDKSRWQQGNVFSCSVMHEALHNHYTQKSLSLSPGK
In assay [2], B2 registered a koff of 0.00412 s⁻¹ and a kon of 155000 M⁻¹ s⁻¹. The molecule also displayed a Kd in assay [1] of 26.7 nM.

As a reminder, the Kd is the constant that tells how readily two partners part at equilibrium. A higher Kd goes with weaker binding. Usually koff stands for the first-order rate constant of dissociation. Broadly, the kon is a measure of how fast the partners come together.
